Laboratory results from article PMC12018189, “ATP synthesis of Enterococcus hirae V-ATPase driven by sodium motive force” (The Journal of Biological Chemistry, 2025).

What was measured:
[1] = substrate: Nc1ncnc2c1ncn2[C@@H]1O[C@H](COP(=O)(O)OP(=O)(O)O)[C@@H](O)[C@H]1O; test: luciferin/luciferase luminescence assay of ATP synthesis, proteoliposomes; type: biochemical, Enterococcus hirae; conditions: ATP synthesis direction, 74 mM Pi, 5 mM MgCl2, pH 7.0, 25 °C, smf 269.3 mV (Δψ 154.7 mV, ΔpNa 114.6 mV)
Source text: luciferin/luciferase luminescence assay of ATP synthesis, proteoliposomes on EhVoV1 (Enterococcus hirae V-ATPase)

purified protein = substrate: O=P(O)(O)O; test: purified protein; conditions: ATP synthesis direction, 0.5 mM ADP, 5 mM MgCl2, pH 7.0, 25 °C, smf 269.3 mV (Δψ 154.7 mV, ΔpNa 114.6 mV)

B1: EhVoV1 (Enterococcus hirae V-ATPase) (Enterococcus hirae ATCC 9790) (protein)
chain 1: MQIGKIIKVSGPLVMAENMSEASIQDMCLVGDLGVIGEIIEMRQDVASIQVYEETSGIGPGEPVRSTGEALSVELGPGIISQMFDGIQRPLDTFMEVTQSNFLGRGVQLPALDHEKQWWFEATIEEGTEVSAGDIIGYVDETKIIQHKIMVPNGIKGTVQKIESGSFTIDDPICVIETEQGLKELTMMQKWPVRRGRPIKQKLNPDVPMITGQRVIDTFFPVTKGGAAAVPGPFGAGKTVVQHQIAKWSDVDLVVYVGCGERGNEMTDVVNEFPELIDPNTGESLMERTVLIANTSNMPVAAREASIYTGITIAEYFRDMGYDVAIMADSTSRWAEALREMSGRLEEMPGDEGYPAYLGSRLAEYYERSGRVIALGSDQREGSITAISAVSPSGGDISEPVTQNTLRVVKVFWGLDSSLAQKRHFPSINWIQSYSLYSTEVGRYMDQILQQDWSDMVTEGMRILQEEEQLNEIVRLVGIDSLSDNDRLTLEVAKSIREDYLQQNAFDDVDTFTSREKQFNMLKVILTFGKEARKALSLGAYFNEIMEGTVAVRERISRSKYIPEEELAKISSINEEIKETIQLIVSEGGMTDD
chain 2: MIKEYRTIKEVVGPLMAVEKVSGVKYEELIEVRMQNGEIRRGQVLEVQEDKAMVQIFEGTSGINLKNSSVRFLGHPLQLGVSEDMIGRVFDGLGRPKDNGPEILPEKYLDINGEVINPIARDYPDEFIQTGISAIDHLNTLVRGQKLPVFSGSGLPHKELAAQIARQATVLDSSDDFAVVFAAIGITFEEAEFFMEDFRQTGAIDRSVMFMNLANDPAIERIATPRMALTAAEYLAYEKGMHVLVIMTDMTNYAEALREISAARREVPGRRGYPGYLYTNLATLFERAGRIRGLKGSVTQIPILTMPEDDKTHPIPDLTGYITEGQIILTRELYKSGIQPPIDVLPSLSRLKDKGTGAGKTREDHAATMNQLFAAYAQGKQAKELAVVLGESALSDIDKIYAKFAERFENEYVNQGFYTNRTITETLDLGWELLAMLPRTELKRIKDDLLDKYLPEGK
notes: whole VoV1 complex, His tags on c-subunits, expressed in E. coli C41(DE3), DDM-solubilised, Ni-NTA and size exclusion, reconstituted into soybean phosphatidylcholine liposomes; with V-type sodium ATPase subunit D; V-type sodium ATPase subunit G; V-type sodium ATPase subunit E; V-type sodium ATPase subunit F; V-type sodium ATPase subunit C; V-type sodium ATPase subunit I; V-type sodium ATPase …
- Km [1]: 21 ± 2 µM
- kcat [1]: 4.7 s⁻¹
- Km (purified protein): 2100 ± 200 µM
- kcat (purified protein): 4.7 s⁻¹
